Target: IL-1b (human) (human, UniProt P01584 117-269)
Test: plate binding assay / ELISA with aptamer replacing primary antibody; dose-dependent; protein fixed in plate, n = 3; buffer, salt, pH and temperature not given in the material

Sequence of IL-1b (human) (P01584 117-269): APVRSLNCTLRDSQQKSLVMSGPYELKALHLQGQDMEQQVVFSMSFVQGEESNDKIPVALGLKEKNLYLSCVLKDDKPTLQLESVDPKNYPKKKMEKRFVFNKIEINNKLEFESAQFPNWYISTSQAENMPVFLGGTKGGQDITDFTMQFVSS

## GAAGTATAGCGCAATAAACTCACCTCCCAC (ssDNA) [AptIL-1b]
  binding result: binds

— publication PMC7312664, “Beneficial Effects of Inflammatory Cytokine-Targeting Aptamers in an Animal Model of Chronic Prostatitis”
